Source: paper PMC8630636, “Fis Connects Two Sensory Pathways, Quorum Sensing and Surface Sensing, to Control Motility in Vibrio parahaemolyticus”

B1: Qrr3coding_mut (dsDNA)
DNA 1: CCTTCTTAAGCCGAGAGTATCTTAGATAAATGACGTTGTTAGTGAA
DNA 2: TTCACTAACAACGTCATTTATCTAAGATACTCTCGGCTTAAGAAGG
B2: ParaB_mut (probe 3) (dsDNA)
DNA 1: TTTTTATCACTCCTCGTAGAAACCCTATTTATGGGATAACCCAC
DNA 2: GTGGGTTATCCCATAAATAGGGTTTCTACGAGGAGTGATAAAAA
B3: ParaB_WT (probe 3) (dsDNA)
DNA 1: TTTTTGTCCATAAACTTAGCAACCCTATTTATGGGATAACCCAC
DNA 2: GTGGGTTATCCCATAAATAGGGTTGCTAAGTTTATGGACAAAAA

Target: T1, Fis (Vibrio parahaemolyticus RIMD2210633, UniProt P64128 1-98)
T1 sequence: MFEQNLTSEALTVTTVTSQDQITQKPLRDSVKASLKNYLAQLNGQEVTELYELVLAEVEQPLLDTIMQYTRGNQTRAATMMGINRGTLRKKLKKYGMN
Assay: EMSA; 10 mM Tris, 150 mM KCl, 0.1 mM DTT, 0.1 mM EDTA, 5% PEG, pH 7.4, 20 min at room temperature; 30 ng DNA; 6% native gel in 1x TAE at 4 C
Conditions: protein: recombinant; tags: 6xHis-MBP fusion (pMAL-c5x) removed by TEV cleavage; chain copies: 2; blunt

Row | Molecule | binding result
1 | B1 | no binding
2 | B2 | no binding
3 | B3 | binds

Target: T2, Fis (Vibrio parahaemolyticus RIMD2210633) (UniProt P64128)
T2 sequence: T1 sequence
Assay: EMSA
Conditions: 10 mM Tris, 150 mM KCl, 0.1 mM DTT, 0.1 mM EDTA, 5% PEG, pH 7.4, 20 min at room temperature; 30 ng DNA; 6% native gel in 1x TAE at 4 C

Row | Molecule | binding
4 | AATCTACTTGTTGTTATAGCCAGAGCTGGTGGGTTATCCCATAAATAGGGTTGCTAAGTTTATGGACAAAAACGTCACTGGGTGTTTTTTGTGTCCTTTTTAACACCTTTATATATTGCTCAAAAATTAAGTGTTTTCGATCATGATTAACG (double strand) [ParaB probe 2] | binds
5 | AGCCTGACGTTGGTAAGGTGCGCTAAAACACCAAAATATGCCGAGTTAAAAGATACCAAAAATCGATGTACTTCCTCTGTAGGAATAGTCCTATTTACATAGCAGGAAACACCTAAAGCAGCGCTTTATTAACGGCTTAATCAACACGTCACATTCCTAAAATGAATTAAATATTTTCAGCTTTTTAGTCGCCTTGTCTTATAGGGAAACACTAGATGTTTTCGAGAGGAAGGCGGAACACATA (double strand) [PlafB] | binds
6 | CATAGGTTCACCTTTAAGAATTATTGTTTGTGTTATGGTTCACATTTATTTCAGTTACCGGTAACATGTTACCGATAACATGAATAAGATAAACCCATATTTTAAAGTGAATTCAAAAATTGAGATCACGCGCAAATT (double strand) [PgntK probe 1] | binds
7 | CCATCCACTGGTAGAGGTGAGTGTTCGCTGTACATATTTGTGCATCCTTGACCATTTGTTAGTGATAAAAATCACAGCGGAAAAATGTAGCAATTTTGTCCATTCATTTAGCTACAGAGGCTATGAAGCAGCTCTCAA (double strand) [ParaB probe 1] | binds
8 | CCATTTGAAAAGGGATTGAGTGTTGTTGATAGAGTTTTTTTTACTGGAGATTTGATACGTTAACTGGATTTTTGTAACATTAAAATGGAAGTGTGATTTTGCTCAATAGCACAAAAGTCCAGTCCGGTGT (double strand) [VPA1424 regulatory region (negative control)] | binds more weakly
9 | CTTAATAATAGTTTTATCTATAAACAAACAGTGAGCTTTGTTATAAATTCATTAAAAATTTAACTTTGTATTAATTAGAAAATTCAGCGTCATATTTGTTCAACTGCGACTATTCTTTTTATAACCAAGTAATCTC (double strand) [PscrABC probe 2] | binds
10 | GAGCTCTCCTAGGTACCAACCGTGAAATCCATTTACTGAGGTATTTTTCCTCATTAATTAGCAGTATAGGGTAAAAATATGAAAGCTAATGGATAATCATAAAGTAGTAGTTGGTTTTTTGCTGAGAAAGTGATTAGTAGCAATGTAACAAGTGGCATATTTGCATGCTATTGCATTTTGCAAATGCAATTTGCGAAAGTGCTGGTTAATAATGCGTCGATATGCACCTGGATCTATTAAAAAACGGCTTTTTTAAAGTTGGCACGCATCGTGCTTTATCTAGAG (double strand) [Pqrr4] | binds
11 | GCGTTTATCATAAAAATAGTCAATTTAATGAATATTTTAATATGTATTCAGTTGTTTATTGGTTGGAGGCGAAACTGTTGCTTATGTCATCAAATAAGCTAAAAAAGTGGAACTAAAGTCACTTAATGGCAGAGTAAAAAATTAAAG (double strand) [PscrABC probe 1] | binds
12 | TATGTTAAGTTTCATAAAATGGCTTGATGTTTAAATGAACAGTTAATTTTTAGACCATATATAGCGAGATCTAAAGTAGTTCAAACAAATGTACGGTCTAACTCTTAGCTGCGAGAACAAACCACTTGGATATACGCTC (double strand) [PscrABC probe 3] | binds
13 | TCACGCGAATACGCACTTTAATACGTATGTCTAATGTTTATACGCGACCACTTTCGCCTAAAAGTTTAGGTATAGTTGATAATTAGTCGACTTAAGCAATCTATGTACCAAAATCAACGCCAAAATAATGACTCAAAGCTAAATAACAGCACAATCCATTG (double strand) [PflhA] | binds
